For one variant, screen value results are on record in article PMC4906247.

Sequences and labels used below:
B1: hDAPK2 CD + ARD wild type (pETM14 construct for SEC, SAXS, CaM pull-down and FA) [human] / itself (parent)
chain: NMEPFKQQKVEDFYDIGEELGSGQFAIVKKCREKSTGLEYAAKFIKKRQSRASRRGVSREEIEREVSILRQVLHHNVITLHDVYENRTDVVLILELVSGGELFDFLAQKESLSEEEATSFIKQILDGVNYLHTKKIAHFDLKPENIMLLDKNIPIPHIKLIDFGLAHEIEDGVEFKNIFGTPEFVAPEIVNYEPLGLEADMWSIGVITYILLSGASPFLGDTKQETLANITAVSYDFDEEFFSQTSELAKDFIRKLLVKETRKRLTIQEALRHPWITPVDNQQAMVRRESVVNLENFRKQYVRRRWKLSFSIVSLCNHLTR

In the assay the parent is B1. Put plainly: analytical size-exclusion chromatography (SEC). The conditions noted are these: with itself. (In general: In gel filtration, larger molecules generally elute earlier.)
Take chain 1 R48E R51E R54E R55E: the screen value amounted to 4410 kDa.
